The values that follow come from paper doi:10.1101/2021.10.27.466080, “The structure of a native orthobunyavirus ribonucleoprotein reveals a key role for viral RNA in maintaining its helical architecture” (bioRxiv, 2021).

This data set concerns the molecule itself. Nature of the data set: cryo-EM structure; native BUNV RNPs purified from virions, TNE with 25 mM NaCl; cryo-ET sub-tomogram average (20 Å) used as reference for a single-particle average with helical symmetry at 13 Å; 'split' NP from PDB 3ZLA fitted flexibly by molecular dynamics (MDFF).

B1: Bunyamwera virus (BUNV) nucleocapsid protein (NP) (natural protein)
chain: MIELEFHDVAANTSSTFDPEVAYANFKRVHTTGLSYDHIRIFYIKGREIKTSLAKRSEWEVTLNLGGWKITVYNTNFPGNRNNPVPDDGLTLHRLSGFLARYLLEKMLKVSEPEKLIIKSKIINPLAEKNGITWNDGEEVYLSFFPGSEMFLGTFRFYPLAIGIYKVQRKEMEPKYLEKTMRQRYMGLEAATWTVSKLTEVQSALTVVSSLGWKKTNVSAAARDFLAKFGINM
notes: Nucleocapsid protein (NP) of Bunyamwera virus, as it stands in native ribonucleoproteins (RNPs) with the genomic RNA; NP stands in the RNP as a helical polymer wrapped around viral genomic RNA (S, M, L segments); about 3.7 NP per helical turn; The number of copies depends on the segment; also called BUNV NP; nucleoprotein; source: native RNPs purified from BUNV virions propagated in BHK-21 cells …
In the case of B1, the binding result is “binds”.
